Assay [1] deals with Intestinal epithelial cells of the Caco-2 line. The assay is described as follows: Iron fixation at the cellular level over 16 hours of culture (Example 1, FIG. 1). Particulars: Caco-2 cells, no L-arginine. The assay is classed as cell-based, human. On the procedure:
Native bovine Lf was treated at pH 1 so as to substitute the unlabeled iron that it contained in the natural state with ^59Fe labeled iron.
The Lf-^59Fe was then purified in order to remove the nonfixed labeled iron, by gel filtration on a column of SEPHADEX® G-75.
(§1) Intestinal epithelial cells of the Caco-2 line derived from a colon cancer were incubated in a proportion of 2×10^6 cells per ml in an RPMI 1640 medium buffered at pH 7.4, in the presence of 25 mmolar of Hepes, containing 15% (v/v) of fetal calf serum, 2 mmol/l of L-glutamine and 1% (v/v) of a solution of streptomycin-penicillin, sold by the company Gibco.
(§2) Iron fixation at the cellular level was then initiated by adding Lf-^59Fe and/or labeled iron and/or L-arginine.
(§3) One of the cell culture tubes received none of these three constituents, so as to act as a control.
The distribution of the constituents, and also the concentrations at which they were used, appear in Table I below:
The cells were then incubated for a period of 16 hours in Eppendorf tubes kept stirring for the final 2 hours of the culture period. Throughout the incubation period, the amount of cellular iron was measured by centrifugation pellet of the cells a first time after 30 minutes (t=0.5), then after one hour (t=1), and then every hour (t=2 to t=16), using a device for measuring the radioactivity.

Assay [2] has the same test system. The assay is described as follows: Degree of iron fixation at the cellular level as a function of concentrations (Example 3). Particulars: Caco-2 cells, after 72 hours of incubation; tube contents per Table III (mg/ml); Control = 1. Format: cell-based, human. On the procedure:
as §1
Twelve tubes of epithelial cell cultures were prepared according to the conditions described above in Example 1.
as §2, §3
The distribution of the constituents, and also the concentrations at which they were used, appear in Table III below:
The degree of cellular fixation of iron was measured after 72 hours of incubation using a device for measuring the radioactivity.

B1: Lf-^59Fe: Native bovine lactoferrin treated at pH 1 and saturated with ^59Fe labeled iron (85% to 100% saturation) (protein, UniProt P24627 20-708, looked up)
Lactotransferrin: APRKNVRWCTISQPEWFKCRRWQWRMKKLGAPSITCVRRAFALECIRAIAEKKADAVTLDGGMVFEAGRDPYKLRPVAAEIYGTKESPQTHYYAVAVVKKGSNFQLDQLQGRKSCHTGLGRSAGWIIPMGILRPYLSWTESLEPLQGAVAKFFSASCVPCIDRQAYPNLCQLCKGEGENQCACSSREPYFGYSGAFKCLQDGAGDVAFVKETTVFENLPEKADRDQYELLCLNNSRAPVDAFKECHLAQVPSHAVVARSVDGKEDLIWKLLSKAQEKFGKNKSRSFQLFGSPPGQRDLLFKDSALGFLRIPSKVDSALYLGSRYLTTLKNLRETAEEVKARYTRVVWCAVGPEEQKKCQQWSQQSGQNVTCATASTTDDCIVLVLKGEADALNLDGGYIYTAGKCGLVPVLAENRKSSKHSSLDCVLRPTEGYLAVAVVKKANEGLTWNSLKDKKSCHTAVDRTAGWNIPMGLIVNQTGSCAFDEFFSQSCAPGADPKSRLCALCAGDDQGLDKCVPNSKEKYYGYTGAFRCLAEDVGDVAFVKNDTVWENTNGESTADWAKNLNREDFRLLCLDGTRKPVTEAQSCHLAVAPNHAVVSRSDRAAHVKQVLLHQQALFGKNGKNCPDKFCLFKSETKNLLFNDNTECLAKLGGRPTYEEYLGTEYVTAIANLKKCSTSPLLEACAFLTR
modifications: 59Fe iron-saturated
As for B1, in assay [1], the “Persistence of the iron fixed in the cell” value is “only transiently fixed”.

B2: Cell culture tube 3: Table III tube: Lf-^59Fe 0.01 mg/ml alone (protein, UniProt P24627 20-708, looked up)
Lactotransferrin: B1 Lactotransferrin
modifications: 59Fe iron-saturated
For B2, the “Degree of iron fixation in the cells (cpm ^59Fe)” value (“Degree of iron fixation” for short) in assay [2] worked out at 1.1 ± 0.1 cpm ^59Fe.

B3: Cell culture tube 2: Table III tube: Lf-^59Fe 0.1 mg/ml alone (protein, UniProt P24627 20-708, looked up)
Lactotransferrin: B1 Lactotransferrin
modifications: 59Fe iron-saturated
Regarding B3, the “Degree of iron fixation” value in assay [2] was found to be 1.0 ± 0.2 cpm ^59Fe.

B4: Cell culture tube 1: Table III tube: Lf-^59Fe 1 mg/ml alone (protein, UniProt P24627 20-708, looked up)
Lactotransferrin: B1 Lactotransferrin
modifications: 59Fe iron-saturated
On to B4, for which the “Degree of iron fixation” value in assay [2] is 1.2 ± 0.1 cpm ^59Fe.

The record behind these values is patent US6984624B2, “Composition containing an iron complexing protein and a precursor of nitrogen monoxide metabolism and/or a chemical donor of nitrogen monoxide and uses thereof” (Isocell S.A., priority 2000, dated 2006).
